Experimental data from article PMC6423188, “HYNIC and DOMA conjugated radiolabeled bombesin analogs as receptor-targeted probes for scintigraphic detection of breast tumor” (EJNMMI Research, 2019).

Key:
[1] = in vitro; format: in vitro ADME; details: rat
Protocol: An aliquot (100 μL) of ^99mTc-BN1/^99mTc-BN2/^99mTc-BN3/^99mTc-BN4/^99mTc-BNS was added to 1 mL of freshly collected rat serum in centrifuge tube. The mixture was then incubated at 37 °C for 1 h; the serum protein was precipitated by adding 1 mL trichloroacetic acid (10%, V/V). The supernatant and precipitate were separated by centrifugation at 3000 rpm for 5 min. Radioactivities of both the phases were measured separately. The above experimental procedure was repeated three times. The percentage of protein binding was determined as: Plasma protein binding % = (precipitate counts (CPM) / [precipitate counts (CPM) + plasma counts (CPM)]) × 100%.

[2] = physchem; format: physicochemical; details: pH 7.4
Protocol: Lipophilicity of the HPLC-purified radiopeptide analogs was determined through octanol/water partition coefficients, determined at pH 7.4 by measuring the distribution of the HPLC purified radiolabeled peptides in 1-octanol and PBS. Then, 50 μL HPLC purified ^99mTc-BN1/^99mTc-BN2/^99mTc-BN3/^99mTc-BN4/^99mTc-BNS with 100 μCi of radiolabeled compound in PBS was added to a to a centrifuge tube containing 1 mL n-octanol and 1 mL PBS (0.025 M, pH 7.4). The tube was vortexed at room temperature for 2 min and they are centrifuged at 5000 rpm for 5 min to ensure complete separation of layers. Further, 100 μL of each phase was transferred into a separate pre-weighed vial and measured in the well γ-counter. The ratio of octanol layer counts to aqueous layer counts was expressed as the distribution coefficient (D, the appropriate descriptor for ionizable compounds) and logD was used for determination of lipophilicity. Counts per unit weight of the sample were calculated, and logD value as calculated as follows:
log10D = log10 [(cpm in octanol – cpm in background) / (cpm in buffer – cpm in background)]

[3] = tested on: MDA-MB-231 tumor-bearing mice; test: In vivo biodistribution; parameters: species or system mouse; details: mean ± SD, n = 3; for Tumor uptake: MDA-MB-231 tumor
Protocol: All animal experiments were done according to the CSIR-IICB Animal Ethics Committee’s rules and regulation. Forty-eight hours before tumor cell implantation, an immunosuppressive drug (cyclosporine-A) was given intraperitoneal (i.p) at a concentration of 30 mg/kg/day. After that, MDA-MB-231 cells (5 × 10^6) 0.2 mL were implanted subcutaneously into the left flanks of the hind leg of BALB/c mice. Thereafter, the same dose of cyclosporine was given i.p. daily up to 2 weeks. Two weeks after inoculation of the tumor cells, when tumors reached ~ 0.5 cm in mean diameter, the tumor-bearing mice were used for biodistribution and imaging studies. Animals were monitored daily and their weights were recorded. Control group of mice received only 0.9 wt% saline. After cell implantation, the growth rate of the breast tumor followed a satisfactory pattern of spheroid shape and tumors are palpable within 2 to 4 weeks. MDA-MB-231 cell implanted mice tumor models were used for biodistribution and planar imaging studies of these radiolabeled new bombesin analogs.
In tissue biodistribution studies, tumor-bearing animals were divided into four groups and well hydrated for 1 h by intraperitoneal administration of saline (0.9%, 2 mL). Three animals per groups were used for biodistribution studies. After that, the radiolabeled new bombesin analogs (^99mTc-BN) were injected intravenously in each animal of each group consequently through the tail vein [24–27]. After 5, 30, 60, and 120 min intravenous administrations of radiolabeled analogs, the animals were sacrificed; blood, heart, lung, liver, kidney, stomach, intestine, spleen, pancreas, brain, muscle, and tumor were excised, weighed, and counted for radioactivity. The organ uptake was calculated as a percentage of the injected activity per gram of wet tissue (%IA/g). In order to evaluate whether binding of bombesin analogs to MDA-MB-231 cells in vivo is specific; blocking studies with ^99mTc-labeled bombesin analogs in tumor-bearing mice were carried out. Groups of three animals were injected 0.03 nmol of ^99mTc-labeled BN analogs (2 MBq) with 25 nmol of non-radiolabeled BN peptide. After 60 min and 120 min, mice were sacrificed and the organs were collected. Each organ was weighed and counted in a gamma counter along with activity standard and percentage of injected activity per gram (%IA/g) of tissue was calculated for each type of tissues. Counts were corrected for background radiation and physical decay of the radioactivity. The uptake was expressed in the percentage of injected activity per gram of each organ (%IA/g). Data were analyzed statistically by the t test, with the level of significance set at P < 0.05.

[4] = 60 min p.i., blocked with excess non-radiolabeled BN peptide

^99mTc-HYNIC-Asp-[Phe^13Nle^14]BN(7-14)NH2 [99mTc-BN1]
Percentage of plasma protein binding [1]: 45.00% | logD [2]: − 1.85 ± 0.05 | Tumor uptake ([3]; 5 min p.i., i.v.): 0.78 ± 0.03 %IA/g | Blood uptake ([3]; 5 min p.i., i.v.): 1.32 ± 0.07 %IA/g | Heart uptake ([3]; 5 min p.i., i.v.): 1.02 ± 0.05 %IA/g | Intestine uptake ([3]; 5 min p.i., i.v.): 1.06 ± 0.05 %IA/g | Kidney uptake ([3]; 5 min p.i., i.v.): 2.12 ± 0.10 %IA/g | Liver uptake ([3]; 5 min p.i., i.v.): 0.85 ± 0.04 %IA/g | Lung uptake ([3]; 5 min p.i., i.v.): 0.95 ± 0.04 %IA/g | Muscle uptake ([3]; 5 min p.i., i.v.): 0.22 ± 0.02 %IA/g | Pancreas uptake ([3]; 5 min p.i., i.v.): 2.58 ± 0.12 %IA/g | Spleen uptake ([3]; 5 min p.i., i.v.): 0.94 ± 0.04 %IA/g | Stomach uptake ([3]; 5 min p.i., i.v.): 0.42 ± 0.02 %IA/g | Urine + urinary bladder uptake ([3]; 5 min p.i., i.v.): 0.81 ± 0.04 %IA/g | Tumor uptake ([3]; 30 min p.i., i.v.): 2.51 ± 0.12 %IA/g | Blood uptake ([3]; 30 min p.i., i.v.): 0.89 ± 0.04 %IA/g | Heart uptake ([3]; 30 min p.i., i.v.): 0.81 ± 0.04 %IA/g | Intestine uptake ([3]; 30 min p.i., i.v.): 1.36 ± 0.06 %IA/g | Kidney uptake ([3]; 30 min p.i., i.v.): 4.12 ± 0.20 %IA/g | Liver uptake ([3]; 30 min p.i., i.v.): 0.69 ± 0.03 %IA/g | Lung uptake ([3]; 30 min p.i., i.v.): 0.77 ± 0.03 %IA/g | Muscle uptake ([3]; 30 min p.i., i.v.): 0.27 ± 0.01 %IA/g | Pancreas uptake ([3]; 30 min p.i., i.v.): 1.79 ± 0.08 %IA/g | Spleen uptake ([3]; 30 min p.i., i.v.): 0.51 ± 0.02 %IA/g | Stomach uptake ([3]; 30 min p.i., i.v.): 0.85 ± 0.04 %IA/g | Urine + urinary bladder uptake ([3]; 30 min p.i., i.v.): 2.85 ± 0.01 %IA/g | Tumor uptake [3, 4]: 1.20 ± 0.03 %IA/g | Blood uptake [3, 4]: 0.34 ± 0.01 %IA/g | Heart uptake [3, 4]: 0.44 ± 0.01 %IA/g | Intestine uptake [3, 4]: 1.44 ± 0.05 %IA/g | Kidney uptake [3, 4]: 3.10 ± 0.02 %IA/g | Liver uptake [3, 4]: 0.55 ± 0.03 %IA/g | Lung uptake [3, 4]: 0.57 ± 0.02 %IA/g | Muscle uptake [3, 4]: 0.16 ± 0.02 %IA/g | Pancreas uptake [3, 4]: 0.91 ± 0.04 %IA/g | Spleen uptake [3, 4]: 0.35 ± 0.01 %IA/g | Stomach uptake [3, 4]: 0.40 ± 0.02 %IA/g | Urine + urinary bladder uptake [3, 4]: 3.56 ± 0.02 %IA/g | Tumor uptake ([3]; 60 min p.i., i.v.): 1.85 ± 0.09 %IA/g | Blood uptake ([3]; 60 min p.i., i.v.): 0.32 ± 0.01 %IA/g | Heart uptake ([3]; 60 min p.i., i.v.): 0.47 ± 0.02 %IA/g | Intestine uptake ([3]; 60 min p.i., i.v.): 1.70 ± 0.08 %IA/g | Kidney uptake ([3]; 60 min p.i., i.v.): 3.15 ± 0.15 %IA/g | Liver uptake ([3]; 60 min p.i., i.v.): 0.56 ± 0.02 %IA/g | Lung uptake ([3]; 60 min p.i., i.v.): 0.56 ± 0.02 %IA/g | Muscle uptake ([3]; 60 min p.i., i.v.): 0.14 ± 0.01 %IA/g | Pancreas uptake ([3]; 60 min p.i., i.v.): 1.11 ± 0.05 %IA/g | Spleen uptake ([3]; 60 min p.i., i.v.): 0.32 ± 0.01 %IA/g | Stomach uptake ([3]; 60 min p.i., i.v.): 0.56 ± 0.02 %IA/g | Urine + urinary bladder uptake ([3]; 60 min p.i., i.v.): 3.50 ± 0.15 %IA/g | Tumor uptake ([3]; 120 min p.i., i.v.): 1.56 ± 0.07 %IA/g | Blood uptake ([3]; 120 min p.i., i.v.): 0.05 ± 0.01 %IA/g | Heart uptake ([3]; 120 min p.i., i.v.): 0.17 ± 0.01 %IA/g | Intestine uptake ([3]; 120 min p.i., i.v.): 1.10 ± 0.05 %IA/g | Kidney uptake ([3]; 120 min p.i., i.v.): 1.56 ± 0.07 %IA/g | Liver uptake ([3]; 120 min p.i., i.v.): 0.32 ± 0.01 %IA/g | Lung uptake ([3]; 120 min p.i., i.v.): 0.32 ± 0.01 %IA/g | Muscle uptake ([3]; 120 min p.i., i.v.): 0.09 ± 0.02 %IA/g | Pancreas uptake ([3]; 120 min p.i., i.v.): 0.69 ± 0.03 %IA/g | Spleen uptake ([3]; 120 min p.i., i.v.): 0.26 ± 0.03 %IA/g | Stomach uptake ([3]; 120 min p.i., i.v.): 0.35 ± 0.01 %IA/g | Urine + urinary bladder uptake ([3]; 120 min p.i., i.v.): 4.79 ± 0.12 %IA/g
